Data published in the NTF2 design screens of Basanta et al. (2020).

Test: protease stability score; higher = more stable; yeast display proteolysis, trypsin and chymotrypsin;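 also: relative to predicted unfolded state with 0 unfolded-like and 1 meaning tenfold more protease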

Row | Sequence | protease stability score
1 | DELERDVKQVWDLLLESSRTGDEEVLDKMLDPNARMKVNGQESHGRHAVELLSERIDHIHHIEIERFRTQGNKIEIDIHIDGEVNGRRIRTHMHVIIRKIDGRWFVESWEMK | 0.931
2 | DELERILKEQAETIMHFWRTGDEESFNHMADPDYWLRVGDKNVHGREKASEYLRHWLEHIRIHDVKIRDKRVFNGRVFIDMREDGNVDGKRTTRTLHVIIVSIDGKITMVEIRLE | 0.996
3 | DELERLAVETIHRFWHSLTTGNEKVLDELLDPNVRVHYNGKDIIGMEHFLKEISEIWRHVEDIKFTDNRVQGEKIRVHGHVDVKEEFDGRKIKIHTRVDYVVHKINGVWVVQSIKIH | 1.05
4 | DELERLVEDLVRILLEILLTGDWKILMRLMDPDARFIYGDKQRVGMEEVIKELHRLKEEIRINSIEIKRVEIQGDWVHVDGRSDVEVGDKRRSTEVRYHFHVFNGRMRRINIEVE | 1.12
5 | DELERRAEEVFRQWLHYWLTGDFESMERLADPNVRIVINGVELIGMEHVAREIVHRIRHWRVRIQIDRIDNQGDKVHSEGKLIIHQGEKNIHHDITIHFDVVNGKIKHLEIRIQ | 2.24
6 | DELERRSRDLVELFITALKTGDEDLFSRLIDPNALTWVGDKEQVGWHTDVKMFEDLGLTNFDFHLRSKEIRIIDGKLHTIINGSININGKETDTEIRITISKINGRWQLSSVFVRLH | 0.786
7 | DELERVSERAIKIFLHVFKTGDEHMHERMADPNVRVHVDGQDLHGREETVEHMLHFFERIKNVKIDVEDSKAYGDKVIVHSRLHWNGVTQHVELEMRKVNGRWEVTEIIIH | 0.1
8 | DELETYSRRMFQLLLHIMETGDEEKWDHLADPNARLDIDGREFHGREIVSEVHSQIRSELGVDHHQITHFRLHTFDGKVEVEMEVIDKFDGRDVRSRIHIIVIKINGKWFLHEMSYDHG | 1.35
9 | DELFKNMHTMAEIFLKLLLTGDEDLIRHYADPNVRLEWIFNGVRFEHVGRESFMEFLHRWLEELRLHDLIVHEVRFQGDKYHMDTRERVRVDGVELDRKTEQMYVVVDGRLHSVHRIIN | 0.678
10 | DELHEDAEKAWRYRLEILRTGDPDSILELMDPDVRIEQGDKKFHGRELTEKFMKWLMDHARYEFFHLKDMRTYGNKVETDGYVVGNVDGQEHIVHVHVYSLKVNGRWTIKSIEIK | 1.37
11 | DELHEERERASEVARRWVLTGNEEMLVQLADPEVRLHFNGVDFVGRETIHETLRRIHELWGVDRIEVRLKTVHIYDGVVDVHVDLHVGDKEIRDDIHLKKFNGRWEMTTRHVH | 0.348
12 | DELHEEYRKIYNIFRHLFETGDWDTWRKLADPHARFEYGEKVSHGREVASETIDWLLEHLRLEHFKLDHFTVQGNFFISDGTEHISYGDKTHTVKTRIILVRVNGVFHLVRIEFV | 1.43
13 | DELHEFLERVAERLVRMEHTGNEEELKKLMDPHVRLVVGDKTSVGREELLRFLEELKRKIGWTNFTVHVRRIEVQGDFFNVDMELHVNGRSLHVLIRVQIINGKLESIHWIWI | 2.03
14 | DELHELVKRYWDRWIESMLTGDFDANHELVDPHARVDIGDKRFHGRELYELHYKRIDHFHIHEINIRHIEVVDGRVHIDVIMHTFEIVNGVKFSHHFRQIIIIEKVDGRWVVRRIIVK | 1.01
15 | DELHERLEEVLEVRIEAILTGDWHWLSRMLDPDTRLEVGDKTYHGMEKIYEKLHTETRRMGWRMEVEIKDYRFQGDYLNVDGTIHIKIGDKEIQKRSELKIVVVDGRITEFKIEYR | 1.18
16 | DELHETVEHAMERMIESSKTGDWRSLTKLMDPNVRMHIDGVDLIGWEIAVRVILEIRIEHVHIHHIDVQGDKMEVDVSVRIHFNGKHEDRQIVLFAEKVDGRWINRSVEIR | 1
17 | DELHHVLEIMLRELITAWRTGDERVLNELFDPHVLIVIGDKYYHGREFVTRWLRHIRIKHSEFHLRRIHIQGDYVHITGEFRIEGEFDGRENTVTHDSKIVTLKIDGRWTFHSIVLE | 2.16
18 | DELHKFAEEFMKIFVHNFFTGDWRTMHELLDPHVRLDFNGVEHIGRENVLKFWEEIRRRYDHFHIEVKRVETQGEKAHSDVHLEFRINGQEEHRKQHWHLDVINGRIHSFFVEVE | 2.03
19 | DELHKHAEHMAKLIVETLETGDEDKIRELADPNVRMEIGDKRTIGREELTKLLRKWLSEWRVHDMHVESVEMQGDYTHLHTSVRGEVNGRHRELDTRIDVLVVNGRLKSLRLEIR | 1.04
20 | DELHKLAEDHLEDFSRAIHTGDEDHLHHLIDPDVRYHQGDKNLHGRESWHEILERIDHVESEDVKMHRIERQGNKLIIDGEWHMRFVYNGQEKRVEMNTIVILLKVNGKWVNEAWHIR | 0.463
21 | DELHNLLEHALKIVIELWRTGDWRLIDKMLDPNTLLNFNGKNIHGREEIDRLRKELGIEFFAIEDQDYRRMHIQGDKIELDGDSDIIINGQRRRTHVHLHLEKINGRWVDRRIIFL | 0.913
22 | DELHRDVTEAIKLILHAERTGNWRLMMDLMDPHVKLTIGDKEVHGMEAVFNELRTELEELGLDRFESHVRLRDFRIYDGRVDFHVELIFDFNGREIRHDTRFIVEKVDGRWFIKHIQYG | 2.13
23 | DELIEEARRFHEKLVDNLETGNEEEFEREIDPNTRVDFNGVEIHGWKHFSKMFKEIRFHQVRLHDIRAVGNKVDSDEDVDGNYNGVRVRHRIHVVARKVNGRWLMESVIFR | 1.24
24 | DELIKLAHEFLRIMYDSLRTGDEDRVSELLDPHARLDINGKKRHGRKAILDTYREIWFHDIKIKDVDVIDGVIEIDTRLDLEINGVRFEMKTIIFLTKFNGRWVIEEIRIR | 1.21
25 | DELKDIMREVAEIIIRLEHTGDWRVFRKMADPNVRIDIGDFHIIGREEWRHWIEELRERIKNLKVEIRITHIESQGDKVHSDTRLIIRFDGVTEERTQHLHFVIVDGRVTSVRYENR | 0.009

Row | Sequence | protease stability score
26 | DELKEILLRIIEKMLHALLTGNFEELLKNVDPRTRNDINGVDAVGRENIKRVWEEILRRIDHWEEVRIEDFRVQGDKVHIDGRLIMRVDGRREDTTTHLHIIVFNGRVESIKFEIR | 1.57
27 | DELKEISDEIVLMFDRAIRTGDEHTMKKLLDPNYLLRVDGVDIVGRERFTEIIRQFDHVDYESHRIRDVSIQGDKIDVDSETDIHFTYNGKRERRTYRVRIIILKINGRWRIHEVHLH | 1.77
28 | DELKKILDEYIEDHLRAVHTGDEDRVKHQIDPHVRIDVNGVELIGMEDWKKFLDILGVDNIQVDRYEIKDYHLVGDKATLHEHRDVKYNGVRSRHNINFVVQKIDGKWYFTEYQTE | 0.399
29 | DELKKMLKEMEEFHTDLLETGDFEKIIRNVDPHVRIDVNGQEHHGWHEAVEFIREFIERFKNVKIIIEHVEIQGDKLILHMEFRQGEFHSRLIVYSLKVNGRWILKDMEIR | 1.67
30 | DELKRDADHAVELLHRVIHTGDEDTFVELIDPHVRLDFNGRELIGWEEVRKLMRDLGWEQIHYEIEDIKVYNGQVEIHSRVNINGRTHQSHYHIEKVNGRWILRHVEYE | 1.37
31 | DELKRYLEELVRRVLQATLTGDEDHFSHLADPTTRLILEDEDHHVENHGREDVRRFMEEHFRRVDHWHISLRRLHPVGNKMHSTGTLRVTFDGVKVDVEVRNHFVMVDGRIKFWKIEFI | 1.23
32 | DELKSLSRKATEDIVELIITGDEKMLREYMDPNVRVDINGQEIHGREIFFEYIRHLLEHMGVDHLKLDRMEVRDINGQLYIHFRGTTVFNGRTYDEELIWVIVKIDGRWYIEQIEIRFE | 1.3
33 | DELKTDFENAIRLYEHATKTGDEHEIRKLLDPHVRVDINGREHHGMEHYSDLLHEFLKRLGADHIQFEFKDSHLQGNKLHLHGIIHVHVGDKTHTIDSSVIYEKVDGRWIISSVWYR | 1.01
34 | DELNEITHKFMHEFLRAELTGDWEELHRMLDPHARYIAHIDGREIHFIGRERVLKFMEEWLRRVKNVRIQINDHRVQGDYNHIDGKLKINGKTHDVHIELVMVDGRNHEIHVFIH | 1.61
35 | DELNELNKEAFETYHQISETGNETMHSRNADPHVRIDINGVEYHGWEHAERLWKNLGVKHIQFHDIEIQGNKLIITVIVEVNGQETRSEVILLKINGRWLIHSLSFR | 1.06
36 | DELQHELERFLEEESRMLKTGDEKRLLELADPDVRVHIDGVDMVGWEALETMWRILKERLGADHVEDVKIRHVDLQGDKADMDVEFDMIQGDKKHYLRSRLIVTKINGRWLLRYVIIK | 1.75
37 | DELQKMAKHWIELMIRAQETGDEEELKKYLDPDVRIDVDGRELHGREKADELLKEIRIHEFEIKHMRFQGDKLHLHGTDNQRQGNYEYHVEVTYHLIKINGRWSLREIRVE | 0.637
38 | DELQRDSEEAFELVLRVLRTGDEETMSRLADPHTRINVHQGDKIVEFHGREDFERFMHDLLRKFPNMRIDAERVHTFNGQVVINHRLHVNGQERDLHIFSLKIDGRWHLKHVELKLK | 1.73
39 | DELQRDSKQAVKLWSESVLTGDERVLKEMADPDPRVEVGEYSSHGMHEVKRLLREMRIEVEDFKDENVRVYGEKLVVDGILHIRIHINGRDEHIDRRAILIMVKVDGRWYFKSMVYR | 0.781
40 | DELRDEVRRWLTKLIEDHKTGDEKAMMELADPNVKVVIDGKELVGMELYEHFVRYWREHIRLTDLKIHDMRIQGDKVHAETRVEGNFNGKYRVIETRVLIVKINGRWFLKEIEID | 2.02
41 | DELREDSERAEEWLITASETGNEEDILKLADPNTRIDINGKDLHGRESLEHFIRRYKGVTVRIRHRDIINGKLHLDTELRIDGVTLRTELIITKVNGRWYLEEQIVR | 1.07
42 | DELREESEHARQLYWRSIFTGDEDHFEKLLDPNARVYVNGKNLHGREDVLRVFHELRFRRLHWHDFDDQGDKLFFITKTVVDFNGVKMEQRTELYLRKVDGRWHVEEIRFE | 0.997
43 | DELREHVEEVMRWFFERIKTGDEENFHKMADPDARLQVGDKNVHGRENVLKEWRRHREEIRIEDMKIRELHVIGNYAYLDIHVDITYNGKRKETRVELRVVVIDGRIEHIEIRIN | 0.439
44 | DELRKEAEEHAQHLLDLFDTGDWDRISELADPNTLVIIDINGVHINNVGWEEIRKLWEITRHHLRIEERRVESSRTFENRVELDVKDHIKVGNKKINLDSHITIDVVNGQMKRVDFQLR | 2.04
45 | DELRKESEDLVRILIEIFHTGDEDVFKRMADPHVRLIAENRIVVGRDLVSRFFRHLLEKYPNVTDHVDVRRIILVGDWLHIDLRIDIEIGDKRHEHDVKIHVRKIDGRWVITEIHVK | 1.85
46 | DELRTHAKKMILILFHHLLTGDEEWLHRFMDPSTRRDVGDKELHGMEQITHDIVKEIFLRGAEIHITIRTFRFQGNYLDANIEIKIIVNGQEIHFEVLIHIVKVDGVWLVRSMRFH | 1.43
47 | DELTDSREHALNLYIHKLETGDWNLHERFLDPNVRVDYDGVDLHGREIYRQWETERLEIAGIKHLELKRKSVQGEKIRIDGIEKFDGKEVKTHVIILKVNGKWILETVIFK | 0.171
48 | DELTEDLKHAMTIFLHMLITGDEHWIHDLLDPNTRLEFEGREFVGREDAREEWRKISEEIRVHHVEMKDIHVFDGVIIVDGRMDGEVNGRRTHLNVFFVFHKVNGKWLMRQHSLR | 1.42
49 | DELTEELRHLAHLMIVSLLTGDPSVFQRYLDPNTKSVVNGKNIHGMEEFDKIILEELKRVDHLEIELKRIDAFDGVTHIDGKLKLRIGDKTVETRMEVNIFTINGKVKSIEISRQ | 1.33
50 | DELTEEVRKFLERLWRATHTGNEKEFWELVDPNVRDDINGRILHGRETVIRIITELGFKVRHNEFRDERVVGEYATVHGNFNVDINGKEHEVDVEIIVEKVNGVWTLKYRHFR | 1.54
